The nature of this data set: protease stability score; higher = more stable; yeast display proteolysis, trypsin and chymotrypsin.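 Further: relative to predicted unfolded state with 0 unfolded-like and 1 meaning tenfold more protease.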
As to “SEEDEEAERWVRMLEHLIRTGDEEILNSFADPNVRYIQGDKHLHGRETVYEYLEELWRKLGVDHMNIKDRHLRVFNGRVHLQLFVHFTVNGRSFDSILRFDTIKIDGQWHMHRIVVEII”, the protease stability score worked out at 1.31.

As to “SEEDEEFKHHIKLLIESLETGDWRTDRRLADPHVRLEVGDKTIHGMDEYLEFMSEIRFTRLEISSVEIQGDKLHANGETDGIVNGKRVKVESTFIIIKVDGRWIIEHERMH”, the protease stability score was -0.372.

In turn, “SEEDEEFRHVVERWVRAVTTGNEDELESLLDPNVRLDVGDKRTHGREKWTELFRHLRTQVHHIEITEKHTVGDKVHYRGTLDMTFYVDGVDVRSETETTLVMVKYNGRWQYTHVIIH” registered a protease stability score of 1.15.

As for “SEEDEEIHRNLRILVEAIHTGDETTMSKLIDPHARLKVGDKDHHGREKMTEFLIELGIDHIVFRRTRIINGRAEHHGHIKVGDKKMETRIISDKIDGKWIITEVIIH”, the protease stability score was determined as 1.51.

“SEEDEELKEWLEEFVHALKTGDENLLQRLADPNTRLIFDGRKFHGREEYRKNYEHLRHRIDHIHDEKSTTVHLINGKVTVESRLDGEINGKRIIFKTIIFYWKFDGRWFLRSEEIR” had a protease stability score of 0.935.

In turn, “SEEDEELREMARLIILLEWTGDEETFEHLADPHVRSHINGVHLHGRETVSKWLMHVREHLRFNDIRIRDLWVFNGKVKINGEYDGHVNGRRIRYTVHLYFVIIDGRIREISREHR” returned a protease stability score of 0.301.

“SEEDEERKHFLELWRESFETGDEDSSRDMADPNTRIHIGDKEQVGWEDVMHEMVKIKNARYHIVVHHVEIQGDKLTMDGEVRIDVNGRLIQIRTIIIARKYDGRWIVTHVHIH” registered a protease stability score of 1.3.

“SEEDEETEHITRLIFRAMVTGDWKELLDNLDPHTRVDINGRDQHGWEVMREWVERIKNVQLRIRRISVQGDKTRLDTEFRQGDKSVHVEVRITIVDGVVQHIEFKDR” registered a protease stability score of 1.6.

For the sequence “SEEDEETRKFLDLLFETRHTGDEEMSRQLADPNYQEEFENHTFHGREDFSRFIKELRIHEIRITHIYAQGDKLHIDGELRGEFNGQEVRFRVELHVVKIDGRWVLKSMRVV”, the protease stability score turned out to be 1.44.

As for “SEEDEEVRHVLELLIHAWRTGDERLLMHLLDPHAKFIVGDKELHGREQISRVWKELRIEDSDVHSIELVNGRLRLDTHLIITIGDKHVDVKTRELIVKIDGRWVLEFLEVR”, the protease stability score was determined as 1.37.

In turn, “SEEDEFNREMRREIIEAWETGDFRIIEKLLDPNAKVVVGDYIDHGRHAIEVWLKRYDVRRRRDYKHVEVYDGVIRSDVRMDGEINGQRKITSVHIIFVIINGRIHQVEIHIH” displayed a protease stability score of 1.25.

The sequence “SEEDEFVHEMVEILLKMFLTGDFQHFKRLADPHVMFVFNGKRFHGRHWVLDELIRFPNIKFELTHYEFDDINGVVHINIFGQRDVDGKNENVELHFVVEKVDGRWKIHRIIFRLR” had a protease stability score of 1.11.

“SEEDEHAEHMLRLWLHAIETGDEKLLLELVDPHAKNDVNGVDLHGRHEVWRHVYEMLHKFKNIRWDITETRYIGDYVHIRGILRQGDKTHDIRIKVVSFNGRIKKVEIRIE” returned a protease stability score of 2.48.

In turn, “SEEDEHLERLFRDLIDSFVTGDEDSWHQLADPNARLIVGDKTYHGREKISEYWRRMREEIRVEIKVDHVDIQGDKVHSRVTLIVRINGREIRRDTHMLIIVWNGRFKEERIIPR” registered a protease stability score of 1.25.

Regarding “SEEDEHLRHLAELFVKLLLTGDFNTLHHLLDPHVKFNIGEFESHGMEHLWRAWEEWRFHHISLEDVRVQGDKAHLHFRSTVHYNGRTKRVDTHVEIKVVNGRFKEVHIRIH”, the protease stability score was found to be 1.59.

For “SEEDEHMRRLVEIIIHNWHTGDEEKLANMMDPNAKSNINGVELIGRDLITSFLKEELKRLGVKHVHDTEIHLQGNKSIIHSRVHVNGVDIEMEIIIIIIDGVIKEVEWRRR”, the protease stability score is 1.96.

On to “SEEDEHSERALTLLNHLIMTGDFHDWERFFDPHVRFVVNGVEFHGREDVVRFLLELLERFKNVKIEMESWEIQGDKITSHYHEHVNGVRIERTVIMRKFNGRWFIQEVRFN”, for which the protease stability score came to 0.281.

Consider “SEEDEIAEKILRLYLELFKTGDWRRFEELLDPNVRLEFNGRFYHGREEISRIMKEFHNKFKNVRIELTSFEVQGEKNIMRSSENINGVERETEIYLDIWNGRIQSLIIRVR”, for which the protease stability score was found to be 2.25.

“SEEDEIAKHVWERFFKNVLTGDEDTLLRLLDPDTRLIVIIGDKEIHLHGREELSKFLSELRIHHLEITDWVSQGEKARTHVRSDGTVDGKRHHTEMELILIVINGRIKEIRILVR” gave a protease stability score of 1.07.

“SEEDEIMRRLIDITLHAFQTGDWEAVKTMADPNTRLHVNGRDIHGRDEILRFLEKSRRDLGVENIRIDYTDYRQFDGKVKYHGTDIYNGQRLETTIIIVIVDGKMKTETREIR” yielded a protease stability score of 0.82.

Regarding “SEEDEIVRKLSEIMIHSLETGDFDSFRELADPDYRIETEDHEIVGMEEFERWLKEHLDRFDYDKWEYHSLHIYGDKVKMDIELHLDIDGVKRTHDVYIIIRKYNGQWIVESFMFK”, the protease stability score is -0.384.

“SEEDEKKEEETRLMLEWWRTGDEHAIARNMDPDARLEVDGKERHGREEVLRFISEMLKRLGVDHVRITDWRIIGDFVEVDLSIEVGDKSRKFHLHFFIIDGRIKEIKIDER” had a protease stability score of 1.39.

“SEEDEKSHKLWEEMLEIFMTGDWKRESELADPEARRVFIVDGVNHVFHGRETITEALLRWHKEMRVHDFKLHDRRYQGEKFHVDGIVDGEYNGKKRIYEVEIIIIVVDGRVHSLEFEHK”: the protease stability score stood at 0.296.

As for “SEEDELAHRWVRTWVRAVETGDEDTLTELFDPHARIIITIGDKDIRLHGMHEMLRWYRFFKGMRIELEDMDIQGEKIDTDIRLHQGDKTTTTKLQLHIVNGRMEHVILRVQ”, the protease stability score is 1.54.

As to “SEEDELAKRILETLVRLLLTGNEELRHELADPNMRTEVDGVDLWGMHNDVHFWREIRLKELRIRHIEVQGDKSHSITDLDVEIDGKRIRVETKIRVVVVNGKIHRLHVRID”, the protease stability score is 1.51.

“SEEDELAKYVIRLWVEEFRTGDEESMFRLLDPHVLVQQGDKEYHGRERWEDFIRKLGLQNVRVEVHRVTIQGEFIHVDGIIEIGDKRTRYILYFEKFNGRWINKELRIK” showed a protease stability score of 1.48.

Turning to “SEEDELAMEFMREQDRNQETGDWRRLSELADPNTRVEVNGREIHGMELWIKLLINKLREHGMEVRLHVERVEFYDGVADLDLRLYIHINGKDIHFHTQIIILKINGKWILKYIIIR”, the protease stability score stood at 1.25.

In turn, “SEEDELAREVSRIFTEASRTGDEERLIRLIDPHAKIQIGDKHFIGREDMEEWTRRLVERVDHLEVFIEDSRLIGNKLDVKGLFIEDYGDKRTVLEVRWILVKINGRWSIHSLHFK” displayed a protease stability score of 1.23.

On to “SEEDELDERLLKIMRHAFETGDEEIFMRLVDPHTRTEFNGQEVHGREHLHRWLKEILRTLGVKYVERKDIRAWDGRIHLEFEMHVNGRTLKLTVVVIFINGKLHEYSERIE”, for which the protease stability score turned out to be 1.61.

With “SEEDELLREVFELWVEIVRTGDESRLKKLLDPHVRLIYNGRRYHGWEEVVRFYREWRIKSMSIHSIETQGDKAHANSETDIEYNGKRERSDIRIHMIVINGRIHHIEIREH”, the protease stability score came to 2.39.

Regarding “SEEDELMEEWRRLFIHSFLTGNEDELHRLIDPNARFIINGVNLHGWKALETKLRELGAKHIEVRERHEHRQGNKLELHVHIIIHQGDKDLREDVRIENEKVNGRWVVRTIEEK”, the protease stability score came out at 1.07.

With “SEEDELNHRISHLLTRMRRTGDEDTWHRLADPNMRLEINGVISHGREEALRILSEVDDILGIDRFSVHLDRYTWDGNYIHNDMTFEINGRDLRVHVDSLVINGRMHHERVRVE”, the protease stability score was -0.516.

For the sequence “SEEDELTRELVELWLHVFHTGDEEIMYKLADPNARVDVLIDGKRLDLVGREEIRRFLHEWHREAGFKHFDLHDIHFQGEKVHIDGREVYGDKFFRVIIHIHIVNGRIKSTKIEIR”, the protease stability score worked out at 1.67.

In turn, “SEEDELYRHIAEHLLHLLHTGNEEILDHLLDPHVKLEINIGDKRDEFIGRHSLREWLSRFKNVKLHVHDDKVINGVNHVDGTLDINGRRTHIEIHLHVYNGKVRRLQFNIH” returned a protease stability score of 1.62.

On to “SEEDEMAEEMMRWFLEILETGNEELFNHYADPNVIDIVGDKRVHGMDRFSELHHIFLRHWRIHRRRENTIETYNGRAHIDGEIEGKVNGREKNIRVEIKLNVVNGVIKKVEVTYN”, for which the protease stability score was 0.379.

For the sequence “SEEDEMIEELMRTIIRLFHTGDWEKKAKLMDPNTRSVIGDKHAHGREEIVRLFLEYWRELGIDHISIHDVKLQGDKVIVNGKLRVGEKTIDVRIHYVVVNGRLKSERFEEE”, the protease stability score came to 0.327.

The sequence “SEEDEMSKRFLDDLLHNLRTGDFDRLKNELDPHAKLVVDGQELHGMELASKRDLEMRVNHLEIRHVEIQGEWIHLKGEMDGEVNGKRNIHEVHVLLFKINGRWYVREVWIR” returned a protease stability score of 1.41.

As for “SEEDEMVRYVFELYAIAIETGDEDTLRNMFDPNAKIKFDGVDIHGRENIKRILREWRSSVHHWQIREKEIYGDKISLNVFQDLRFTIDGQFRRITTEVKVEIIKINGKWFFTHLEYI”, the protease stability score was 0.995.

On to “SEEDEQSKKILHIFIEILKTGDFETLEHMLDPNAKLDIDGRDLHGRELFLSMWEEFVRQYKNLRIIFRDYRLYGDYVIIHGQLRINGKTHDLRFHIVNINGRLKHLKIEHE”, for which the protease stability score is 1.46.

The sequence “SEEDERTYKVAKDWHEALQTGNEEIMERLLDPHVRIDVVVDGKKSHKHGMEVVSETLRRIREHLRMKWEIHRVDAQGDKLFVDGRYHIEVGDKKEHYIMHVLMIVIDGRLHSLTIRNE” showed a protease stability score of 1.1.

Regarding “SEEDEVSERLAREYLHIWKTGDEDRLAKLLDPHTRFIYVIGDKELELIGRDKFAEFLRHLWEELGVNHFDVHDFKVYGEKVQLDTTEEYGDKNFRMHIDIVVIDGKVKFIRIKER”, the protease stability score was determined as 1.33.

“SEEDEVTEKLVRLMIHAHHTGDEDLLKTLADPNVRLTIDYNGVKLTSHGREEFVRLLREWKRQIRIEDRKTTESHVYGNFAINNHVELGEFDGRRDRFEVRLHFVVFNGRVKEEKIKFD” came in with a protease stability score of 1.45.

As for “SEEDEVYEEALKITERLERTGNEEDLRTYADPHAKLRFIVDGKTIEIHGREDFVHEVVRYWKRFKNLTVRIERVEFQGDKLHLIGRLHIDGREVIIHMLSVKFNGRWFVENLHIEFV”, the protease stability score came to 1.41.

“SEEDHDRELWISLLKKEAETGDERQVRENLDPNVQLDVGDKTFHGREIVLDHIHEEWKRLGLDRIKLFVDSIRIQGDKVRLDGSLDVNGKEIRVNIFLRKINGRWHIEFIHID” returned a protease stability score of 0.666.

In turn, “SEEDHEHKVLTELSRKDWRTGNEHDLERLMDPNVRVEVDGREHHGWESAHELAKHFHRFFKNATLEIRHEEIQGEYLHIEMIIRVGDKVFDVHFIARKINGRWVLTEFSVH” showed a protease stability score of 0.261.

For “SEEDHELRIASEIMIKTTRTGDERLIKELFDPNTQIDFDGQELHGWKFVRRLDEEMRMHRSETKSYERYGDKIVIDIEVDVEFNGVRTRIRVTIIARKVNGRWLNEVMIIH”, the protease stability score stood at 1.14.

For the sequence “SEEDHFMKHLVDHWAKIEQTGDEHALHELLDPDARVSIKIGDKEHIVHGREYLIELWRQLGFKVIKIHDHTVFNGVVKLHGHWHFDGREVHVEQDLIIINGRVKTVLMRVK”, the protease stability score stood at 1.72.

For the origin of these results see the NTF2 design screens of Basanta et al. (2020).
